Source: patent US20240360208A1 (Hoffmann-La Roche, published 2024)
Where a chain is given by its changes, count along the chain named. Values belong to the binder of their own block, whether it stands above or below them.

Assays:
[1] = molecular target: T1, human FcγRIIb receptor on CHO-K1 cells (clone 223) (human, UniProt P31994 43-310); test: cell-based or functional assay
T1 sequence (looked up): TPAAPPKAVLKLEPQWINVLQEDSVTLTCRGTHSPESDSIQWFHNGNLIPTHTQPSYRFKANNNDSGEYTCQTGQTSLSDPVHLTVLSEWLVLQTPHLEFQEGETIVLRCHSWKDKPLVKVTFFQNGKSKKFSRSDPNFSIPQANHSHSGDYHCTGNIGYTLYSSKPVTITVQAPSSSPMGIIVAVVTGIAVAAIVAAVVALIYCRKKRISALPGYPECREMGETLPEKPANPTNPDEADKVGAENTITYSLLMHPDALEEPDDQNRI

[2] = molecular target: human CCL2 (MCP1) - wild type (wt) (human, UniProt P13500 24-99); test: cell-based or functional assay
[3] = molecular target: T2, human FcγRIIa on CHO-K1 cells (clone 138) (human, UniProt P12318 34-317); test: cell-based or functional assay
T2 sequence (looked up): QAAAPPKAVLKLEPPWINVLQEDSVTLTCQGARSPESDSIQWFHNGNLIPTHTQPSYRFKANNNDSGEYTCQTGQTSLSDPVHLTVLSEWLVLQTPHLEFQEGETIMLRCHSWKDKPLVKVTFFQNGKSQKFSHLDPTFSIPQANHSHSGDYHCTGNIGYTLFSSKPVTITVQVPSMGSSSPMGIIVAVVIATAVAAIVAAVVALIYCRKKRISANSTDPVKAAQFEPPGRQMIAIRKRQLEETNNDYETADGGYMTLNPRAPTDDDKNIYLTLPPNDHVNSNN

[4] = molecular target: T3, human CCL2 (MCP1) - P8A variant (human, UniProt P13500 24-99); test: SPR T200, 37 C
T3 construct: In-house point mutant that cannot dimerise; also called monomeric human CCL2; monomeric CCL2
Method: (§1) Anti-human Fc (GE Healthcare) was immobilized on each flow cells of a CM4 sensor chip using amine coupling kit (GE Healthcare) according to the recommended settings by the manufacturer. Antibodies and analytes were diluted into ACES pH 7.4 or pH 5.8 buffer (20 mM ACES, 150 mM NaCl, 1 mg/ml BSA, 0.05% Tween 20, 0.005% NaN3). […] Sensor surface was regenerated each cycle with 3M MgCl2.

[5] = molecular target: T3, human CCL2 (MCP1) - P8A variant; test: SPR T200, 37 C, anti-human Fc capture, 1:1 model, pH 7.4
Method: as §1

[6] = molecular target: T3, human CCL2 (MCP1) - P8A variant; test: SPR T200, 37 C, anti-human Fc capture, 1:1 model, pH 5.8
Method: as §1

[7] = molecular target: T3, human CCL2 (MCP1) - P8A variant; test: SPR (Biacore T200), 37 °C, ACES pH 7.4; antibody captured on anti-human Fc, monomeric human CCL2 at 8 nM; response normalised to capture level
Method: as §1

[8] = molecular target: T4, human CCL8 (MCP2) - P8A variant (human, UniProt P80075 24-99); test: SPR T200, 37 C, anti-human Fc capture, 1:1 model, pH 7.4; pH 7.4
T4 construct: Proline 8 of mature CCL8 (NP_005614.2) mutated to alanine; also called monomeric human CCL8; CCL8 P8A variant (monomer)
T4 chain: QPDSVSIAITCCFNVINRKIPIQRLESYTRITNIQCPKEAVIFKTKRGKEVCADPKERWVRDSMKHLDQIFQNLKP
Method: as §1

Depletion level max (%) of CCL2 from the supernatant [1]: 80%
EC50 [nM] of CCL2 depletion [1]: 0.13 nM
EC90 [nM] of CCL2 depletion [1]: 0.5 nM
IC50, inhibition of THP-1 migration (chemotaxis assay) [2]: 0.2 µg/mL
EC50 (read off the curve) of the depletion of CCL2 from the supernatant of FcγRIIa CHO cells [3]: ~0.1 nM
B1: P1AF8142 (CKLO2-CB-SG1095) (bispecific antibody)
chain 1: not shown
chain 2: QVQLVQSGAEVKKPGSSVKVSCKASGLTISHTYMHWVRQAPGQGLEWMGRIDPDNHNTKFDPKFQGRVTITADTSTSTAYMELSSLRSEDTAVYYCARGVFGFFEHWGQGTTVTVSSASTKGPSVFPLAPSSKSTSGGTAALGCLVKDYFPEPVTVSWNSGALTSGVHTFPAVLQSSGLYSLSSVVTVPSSSLGTQTYICNVNHKPSNTKVDKKVEPKSCGGSGGGGSGGDKTHTCPPCPAPELWNGPSVFLFPPKPKDTLMISRTPEVTCVVVDVSDEDPEVKFNWYVDGVEVHNAKTKPREELYNSTYRVVSVLTVLHRDWLNGKEYKCKVSNTALPKPIEKTISKAKGQRREPQVYTLPPCRDELTKNQVSLWCLVKGFYPSDIAVEWESNGQPENNYKTTPPVLDSDGSFFLYSKLTVDKSRWQQGNVFSCSVMHEALHAHYTRKELSLSPGKGGSGGGGSGGDIQMTQSPSSLSASVGDRVTITCKAFEDIYNRRAWYQQKPGKAPKLLIHGATSLEHGVPSRFSGSGSGTDYTLTISSLQPEDFATYYCQQFWSAPYTFGGGTKVEIKRTVAAPSVFIFPPSDEQLKSGTASVVCLLNNFYPREAKVQWKVDNALQSGNSQESVTEQDSKDSTYSLSSTLTLSKADYEKHKVYACEVTHQGLSSPVTKSFNRGEC

fold weaker KD at pH 5.8 than at pH 7.4 [4]: > 1000 fold
Kd [5]: 6.85 pM
Kd [6]: 21.7 nM
B2: CKLO03 (IgG1 wild type) (bispecific antibody, V domains shown)
VH 1: QVQLVQSGAEVKKPGSSVKVSCKASGLTISHTYMHWVRQAPGQGLEWMGRIDPDNHNTKFDPKFQGRVTITADTSTSTAYMELSSLRSEDTAVYYCARGVFGFFDHWGQGTTVTVSS
VL 1: DIQMTQSPSSLSASVGDRVTITCKATEDIYNRLAWYQQKPGKAPKLLIHGATSLEHGVPSRFSGSGSGTDYTLTISSLQPEDFATYYCQQFRSAPYTFGGGTKVEIK
VH 2: QVQLVQSGAEVKKPGSSVKVSCKASGGTFSHYGISWVRQAPGQGLEWMGGVIPIFHTANYAQKFQGRVTITADESTSTAYMELSSLRSEDTAVYYCARYDAHYGELDFWGQGTLVTVSS
VL 2: EIVLTQSPATLSLSPGERATLSCRASQHVSDAYLAWYQQKPGQAPRLLIYDASDRAEGVPARFSGSGSGTDFTLTISSLEPEDFAVYYCHQYIHLHSFTFGQGTKVEIK
notes: CrossMab, IgG1 wild type with knobs-into-holes; also called CKLO3; 11K2H1503/11K2L1201//CNTO888H0695/CNTO888L0616

binding result [7]: binds
B3: CKLO04 (IgG1 wild type) (bispecific antibody, V domains shown)
VH 1: B2 VH 1
VL 1: B2 VL 1
VH 2: B2 VH 2 with V51I, P53H
VL 2: B2 VL 2
notes: CrossMab, IgG1 wild type with knobs-into-holes; also called CKLO4; 11K2H1503/11K2L1201//CNTO888H0625/CNTO888L0616

Kd [8]: 23.3 nM
B4: CKLO01 (IgG1 wild type) (bispecific antibody, V domains shown)
VH 1: B2 VH 1
VL 1: B2 VL 1 with T26F, L33R, R92W
VH 2: B2 VH 2
VL 2: B2 VL 2
notes: also called CKLO1; 11K2H1503/11K2L1338//CNTO888H0695/CNTO888L0616
